Consider two molecules from US20200157212A1 (Pfizer, published 2020).

For assay [1], the target named is T1, Human ROBO2 KSR mutant overexpressed on HEK293 cells (human, UniProt Q9HCK4 22-1378).
T1 construct: R100K and K102R already in the entry
T1 sequence: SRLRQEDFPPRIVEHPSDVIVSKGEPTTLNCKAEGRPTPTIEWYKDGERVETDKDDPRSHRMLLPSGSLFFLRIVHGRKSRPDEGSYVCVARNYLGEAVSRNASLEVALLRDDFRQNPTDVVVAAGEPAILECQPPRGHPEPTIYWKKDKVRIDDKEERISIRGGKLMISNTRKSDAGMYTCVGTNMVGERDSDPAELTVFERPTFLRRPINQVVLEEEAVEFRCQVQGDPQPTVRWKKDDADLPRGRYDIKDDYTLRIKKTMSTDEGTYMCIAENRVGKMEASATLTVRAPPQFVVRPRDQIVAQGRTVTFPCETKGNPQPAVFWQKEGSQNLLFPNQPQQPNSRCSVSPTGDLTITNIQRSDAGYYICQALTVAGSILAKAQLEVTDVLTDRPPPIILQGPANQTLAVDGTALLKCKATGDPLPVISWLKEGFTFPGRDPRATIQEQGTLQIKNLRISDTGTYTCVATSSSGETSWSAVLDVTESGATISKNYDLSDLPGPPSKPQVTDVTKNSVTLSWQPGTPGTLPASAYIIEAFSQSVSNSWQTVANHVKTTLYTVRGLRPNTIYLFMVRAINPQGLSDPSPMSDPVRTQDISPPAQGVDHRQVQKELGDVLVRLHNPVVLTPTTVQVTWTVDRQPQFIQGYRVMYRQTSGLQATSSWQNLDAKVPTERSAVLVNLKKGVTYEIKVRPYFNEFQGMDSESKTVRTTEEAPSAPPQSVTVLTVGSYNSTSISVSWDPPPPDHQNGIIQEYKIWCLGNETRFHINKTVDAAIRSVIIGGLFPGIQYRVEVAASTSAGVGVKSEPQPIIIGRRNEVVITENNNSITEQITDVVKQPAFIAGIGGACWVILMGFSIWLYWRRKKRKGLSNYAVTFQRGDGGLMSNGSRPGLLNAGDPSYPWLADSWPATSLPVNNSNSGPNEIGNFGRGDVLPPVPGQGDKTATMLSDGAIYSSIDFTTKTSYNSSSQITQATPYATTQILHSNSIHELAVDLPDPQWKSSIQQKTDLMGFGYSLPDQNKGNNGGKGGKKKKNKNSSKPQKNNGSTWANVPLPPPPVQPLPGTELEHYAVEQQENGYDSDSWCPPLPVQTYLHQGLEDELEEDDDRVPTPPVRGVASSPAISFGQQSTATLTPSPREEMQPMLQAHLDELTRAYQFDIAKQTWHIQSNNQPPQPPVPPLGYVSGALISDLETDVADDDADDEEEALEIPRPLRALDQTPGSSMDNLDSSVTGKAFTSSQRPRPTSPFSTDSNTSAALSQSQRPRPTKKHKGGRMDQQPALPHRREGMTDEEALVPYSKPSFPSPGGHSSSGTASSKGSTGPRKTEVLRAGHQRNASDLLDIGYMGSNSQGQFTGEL
Put plainly: mutagenesis study.

Assay [2] has as its target T2, Human ROBO1 RSK mutant overexpressed on HEK293 cells (human, UniProt Q9Y6N7 26-1651).
T2 construct: K137R and R139K already in the entry; also called ROBO1-RSK cells
Briefly: flow cytometry, Geo MFI ROBO1-RSK/ROBO2-KSR HEK293 cells, 0.1 µg/ml. A general note: Flow cytometry measures light scatter and fluorescence of single cells or particles in a stream.

The target of assay [3] is T3, Human ROBO2 Ig1-Ig2-His (human, UniProt Q9HCK4 31-220).
T3 construct: the His tag is named only in the SPR paragraphs; the Octet and ELISA paragraphs print 'ROBO2 Ig1-Ig2' without a tag; also called ROBO2 Ig1-2; Human ROBO2 Ig 1,2
T3 sequence: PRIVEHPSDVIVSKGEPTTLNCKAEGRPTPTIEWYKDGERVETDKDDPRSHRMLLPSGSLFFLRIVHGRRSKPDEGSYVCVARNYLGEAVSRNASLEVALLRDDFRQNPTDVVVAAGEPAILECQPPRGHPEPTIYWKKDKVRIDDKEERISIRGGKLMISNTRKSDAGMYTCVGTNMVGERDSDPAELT
Briefly: Octet method and SPR method. A general note: BLI is a label-free optical method that tracks binding on a fibre tip over time.

In assay [4] the target is T4, Human ROBO2 Ig 1,2 KSR mutant (human, UniProt Q7TPD3 31-220 (mouse entry), limits assumed).
T4 construct: recombinant protein; also called ROBO2-KSR mutant protein; Human ROBO2 Ig1-2 with the RSK mutated to KSR
T4 chain: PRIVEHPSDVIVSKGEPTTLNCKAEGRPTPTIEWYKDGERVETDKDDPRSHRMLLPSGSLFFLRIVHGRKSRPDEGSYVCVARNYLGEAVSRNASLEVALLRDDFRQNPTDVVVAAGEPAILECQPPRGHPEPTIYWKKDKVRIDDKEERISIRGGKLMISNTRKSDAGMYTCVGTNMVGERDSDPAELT
Briefly: Octet Red BLI, Abcs35 captured on AHC sensors, ROBO proteins in solution. The text has this: Octet Red AHC (Anti-Human IgG FC) Sensors were loaded with Abcs35. The loaded sensors were then exposed to Human ROBO2 Ig1-2, Rat ROBO2 Ig 1-2, Human ROBO2 Ig1-2 with the RSK mutated to KSR as in ROBO1, or ROBO1 Ig1-2 then the sensors were moved to PBS only, lacking any ROBO1 or 2 proteins. The arrows indicate curves for each of the ROBO proteins tested.
Based upon the crystal structure described above, the following experiments were done to confirm the epitope specificity of 93H2 and/or affinity matured clones Abcs35. Using Octet Red, epitope specificity was confirmed biochemically. Abcs35, at 10 μg/ml, was captured on AHC sensors for 60 seconds. Recombinant human ROBO2 Ig1-Ig2, rat […], human ROBO2 containing the ROBO1 KSR sequence (ROBO2-KSR mutant), and human ROBO1 Ig1-Ig2, prepared at 100 nM, were used to interact with captured Abcs35. Association time was 100 seconds then dissociation was followed for 20 seconds. Abcs35 specifically bound human and rat ROBO2 but not human ROBO1 or the ROBO2-KSR mutant protein (FIG. 2).

Where only a bound is given, the exact number is not on record here.

T2 sequence (Q9Y6N7 other isoform, or with tags, fused parts or gaps mutant limits assumed): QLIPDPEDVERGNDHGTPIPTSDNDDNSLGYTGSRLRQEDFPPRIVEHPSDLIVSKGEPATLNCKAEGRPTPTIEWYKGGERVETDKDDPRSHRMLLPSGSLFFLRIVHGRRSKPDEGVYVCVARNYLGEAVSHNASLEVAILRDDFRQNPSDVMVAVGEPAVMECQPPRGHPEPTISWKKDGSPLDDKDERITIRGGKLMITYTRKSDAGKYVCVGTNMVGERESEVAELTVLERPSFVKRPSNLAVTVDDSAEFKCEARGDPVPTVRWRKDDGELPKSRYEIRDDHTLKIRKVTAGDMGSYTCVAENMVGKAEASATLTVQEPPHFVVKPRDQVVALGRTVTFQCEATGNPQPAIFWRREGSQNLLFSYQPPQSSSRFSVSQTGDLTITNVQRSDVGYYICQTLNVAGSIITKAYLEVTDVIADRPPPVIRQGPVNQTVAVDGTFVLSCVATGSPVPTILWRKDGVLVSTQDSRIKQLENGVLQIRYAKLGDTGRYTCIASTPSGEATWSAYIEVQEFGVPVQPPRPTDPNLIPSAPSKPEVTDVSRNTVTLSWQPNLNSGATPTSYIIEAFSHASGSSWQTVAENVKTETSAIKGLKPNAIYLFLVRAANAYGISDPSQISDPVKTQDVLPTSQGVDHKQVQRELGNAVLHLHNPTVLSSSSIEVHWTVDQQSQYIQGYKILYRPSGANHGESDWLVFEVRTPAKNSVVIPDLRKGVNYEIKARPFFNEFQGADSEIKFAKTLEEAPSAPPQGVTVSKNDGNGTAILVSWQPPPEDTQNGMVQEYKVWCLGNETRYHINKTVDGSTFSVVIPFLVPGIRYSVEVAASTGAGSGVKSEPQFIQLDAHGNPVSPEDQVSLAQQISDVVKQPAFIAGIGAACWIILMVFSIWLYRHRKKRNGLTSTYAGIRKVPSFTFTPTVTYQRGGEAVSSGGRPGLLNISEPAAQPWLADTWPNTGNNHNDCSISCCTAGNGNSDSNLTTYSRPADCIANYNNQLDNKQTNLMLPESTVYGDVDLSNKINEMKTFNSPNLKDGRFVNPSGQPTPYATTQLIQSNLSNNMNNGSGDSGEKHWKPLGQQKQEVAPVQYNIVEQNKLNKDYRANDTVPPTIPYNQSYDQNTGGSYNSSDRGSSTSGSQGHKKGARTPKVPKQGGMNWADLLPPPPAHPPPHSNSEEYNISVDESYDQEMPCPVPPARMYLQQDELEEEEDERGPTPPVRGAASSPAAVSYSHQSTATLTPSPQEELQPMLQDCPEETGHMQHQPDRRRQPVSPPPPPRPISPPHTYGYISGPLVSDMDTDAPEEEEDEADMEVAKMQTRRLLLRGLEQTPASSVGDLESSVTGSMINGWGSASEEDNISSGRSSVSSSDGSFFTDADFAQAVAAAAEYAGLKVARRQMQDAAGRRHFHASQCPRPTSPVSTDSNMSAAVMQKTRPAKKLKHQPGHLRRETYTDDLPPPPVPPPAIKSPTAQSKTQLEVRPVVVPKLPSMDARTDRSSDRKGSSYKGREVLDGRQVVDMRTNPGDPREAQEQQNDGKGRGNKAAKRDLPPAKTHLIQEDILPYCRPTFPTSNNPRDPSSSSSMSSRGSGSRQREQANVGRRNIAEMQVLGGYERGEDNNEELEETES

B1: 93H2 (antibody, human IgG1, kappa, V domains shown)
VH: EVQLVQSGAEVKKPGASVKVSCKASGYTFTGYYMHWVRQAPGQGLEWMGWINPNSGATNFPQKFQGRVTMTRDTSITTAYMDLSRLRSDDTAVYYCARESGDDAFDIWGQGTMVTVSS
VL: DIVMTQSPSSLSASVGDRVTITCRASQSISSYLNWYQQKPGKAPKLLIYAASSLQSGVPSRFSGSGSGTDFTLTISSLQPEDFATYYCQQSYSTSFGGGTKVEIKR
notes: also called parental 93H2; 93H2 mAb
Take B1: in assay [1], the binding result was “no binding”. Besides, the “Fold Selectivity for RSK/KSR” value in assay [2] is more than 100 fold.

B2: Abcs35 (antibody, human IgG1, kappa)
heavy: EVQLVQSGAEVKKPGASVKVSCKASGYTFTGYYMHWVRQAPGQGLEWMGWINPKNGDTEFPQKFQGRVTMTRDTSITTAYMDLSRLRSDDTAVYYCARESGDDAFDIWGQGTMVTVSSASTKGPSVFPLAPSSKSTSGGTAALGCLVKDYFPEPVTVSWNSGALTSGVHTFPAVLQSSGLYSLSSVVTVPSSSLGTQTYICNVNHKPSNTKVDKKVEPKSCDKTHTCPPCPAPEAAGAPSVFLFPPKPKDTLMISRTPEVTCVVVDVSHEDPEVKFNWYVDGVEVHNAKTKPREEQYNSTYRVVSVLTVLHQDWLNGKEYKCKVSNKALPAPIEKTISKAKGQPREPQVYTLPPSREEMTKNQVSLTCLVKGFYPSDIAVEWESNGQPENNYKTTPPVLDSDGSFFLYSKLTVDKSRWQQGNVFSCSVMHEALHNHYTQKSLSLSPGK
light: DIVMTQSPSSLSASVGDRVTITCRASQSISSYLNWYQQKPGKAPKLLIYAASSLQSGVPSRFSGSGSGTDFTLTISSLQPEDFATYYCQQSVGLFFGGGTKVEIKRTVAAPSVFIFPPSDEQLKSGTASVVCLLNNFYPREAKVQWKVDNALQSGNSQESVTEQDSKDSTYSLSSTLTLSKADYEKHKVYACEVTHQGLSSPVTKSFNRGEC
notes: fully human IgG1; VH of Ab96 with VL of Ab123
Take B2: binding in assay [3] was characterised by a dissociation constant (Kd) of 279 pM. Further, the binding result in assay [4] is listed as “no binding”.
